Usually EC50 stands for the concentration needed to bring the measured effect to its halfway point. As usually defined, the Kd is the equilibrium constant for the complex coming apart. A high value points to weaker binding. In general, Ki refers to the equilibrium dissociation constant of an inhibitor or competing ligand from its target. Lower therefore signals a stronger hold on the target. What is called IC50 is the concentration that gives 50% inhibition.

The target of test [1] is T1, Human OX40R-IgG1 fusion protein (human, UniProt P43489 29-208).
T1 construct: range 1-208; Purified on protein G; also called OX40-IgG1; OX40-IgG; not shown: constant region of human IgG1 (hinge region, CH2 and CH3), amino acids 98-330 of SWISSPROT Acc; No. P01857
T1 sequence (looked up): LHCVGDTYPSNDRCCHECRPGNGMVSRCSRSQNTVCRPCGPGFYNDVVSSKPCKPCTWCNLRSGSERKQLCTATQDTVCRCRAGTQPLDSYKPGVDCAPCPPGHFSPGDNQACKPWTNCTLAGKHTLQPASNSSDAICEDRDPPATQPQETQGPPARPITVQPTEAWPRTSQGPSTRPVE
The test can be described thus: Alphascreen binding assay, increasing OX40L-CD8 with 10 nM OX40R-IgG1; 10 nM OX40-IgG1. In general terms: Alpha assays give light when donor and acceptor beads are brought close together.

In test [2] the target is T1, Human OX40R-IgG1 fusion protein. The test can be described thus: Alphascreen saturation binding, 10 nM OX40R-IgG1, non-specific binding determined with 1 mM suramin.
Test [3] shares this target. The test can be described thus: Alphascreen binding assay, increasing OX40L-CD8 with 5 nM OX40R-IgG1; 5 nM OX40-IgG1.
For test [4] the target is unchanged. The test can be described thus: Alphascreen-based competition assay against OX40L-CD8 on OX40R-IgG1; P5 (amino acids 94-124). How it is done:
(§1) The soluble components (OX40-IgG₁, OX40L-CD8 and biotinylated anti-CD8 antibody) were mixed at the concentration described before for the competition assays with OX40L and suramin (FIG. 4), together with various concentrations of each peptide in a 5 microliter volume into a first addition step. The streptavidin donor and Protein A acceptor beads were added 30 minutes later. The plates were incubated for 2 hours in the dark, at room temperature and with shaking, before reading at a long excitation wavelength of 680 nm combined with a shorter emission wavelength of 520-620 nanometers, as described in Example 1.

Test [5] has the same target. The test can be described thus: fluorescence quenching spectroscopy of OX40R-IgG1 in solution. The protocol: (§2) The fluorescence quenching assay was performed as previously described (Golabek A et al., 2000). OX40R-IgG₁ (35 micrograms) was dissolved in 500 microliters of PBS and the fluorescence spectum was recorded at 295-420 nanometers with an excitation wavelength of 290 nanometers using a spectrofluorimeter (Perkin Elmer LS50B) with the slits set at 5 nanometers. Fluorescence spectra of human OX40R-IgG₁ were then recorded in the presence of increasing concentrations (5-1000 nM) of P5 and P5-1 peptides after 15 minutes of equilibration. The fluorescence change at 336 nanometers was plotted versus peptide concentration and the resulting curves were analyzed by nonlinear regression fit with Prism® software (GraphPad).
(§3) The affinity of the peptides identified in Example 1 as inhibitor of OX40L-OX40R interaction was evaluated by fluorescence quenching spectroscopy, a technology allowing such measurements in solution, under native conditions and without beads or other supports. This method is based on monitoring the changes in the intrinsic fluorescence of a protein (OX40R-IgG₁) upon its binding with another protein (P5 or P5-1). […]

For test [6] the target is unchanged. The test can be described thus: fluorescence quenching spectroscopy of OX40R-IgG1 intrinsic fluorescence, non-linear regression. How it is done: as §2, §3
Test [7] has the same target. The test can be described thus: Alphascreen competition against OX40L-CD8, IC50 transformed by the Cheng-Prusoff equation. The protocol:
(§4) In the standard assay, OX40-IgG₁ and OX40L-CD8 were incubated together for 30 minutes, and then biotinylated anti-CD8 antibody (10 nM) was added. Following another incubation period of 30 minutes, streptavidin donor beads (20 μg/ml) and Protein A acceptor beads (20 μg/ml) were added to each individual well. The plate was counted 1 hour later using a Packard Fusion™ reader (Biosignal Packard) set at a read time of 1 second/well. Owing to the light sensitivity of the donor and acceptor beads, the experiments were carried out under […] and all incubation periods were performed at room temperature. The plate was read at an excitation wavelength of 680 nanometers combined with a shorter emission wavelength of 520-620 nanometers.
(§5) The ability of two known competitors of OX40L-OX40R interactions (untagged recombinant human soluble OX40L and suramin), which are themselves unable to generate an Alphascreen™ signal in this assay in absence of OX40L-CD8, to displace OX40L-CD8 from OX40R-IgG₁ was investigated. […] Increasing concentrations of OX40L (3 μM-0.1 pM) or suramin (1 mM -1 nM) were added to a reaction mixture also containing OX40-IgG₁ (10 nM) and OX40L-CD8 (40 nM). […] These values can be transformed by the Cheng-Prusoff equation (Cheng, Y C and Prusoff, W H, 1973) to Kᵢ values of 2.0 nM for OX40L and 26.3 μM for suramin. […]

The target is the same in test [8]. The test can be described thus: Alphascreen competition, soluble OX40L displacing OX40L-CD8 (40 nM) from OX40R-IgG1 (10 nM). The protocol: as §4, §5
Test [9] has the same target. The test can be described thus: Alphascreen-based competition assay against OX40L-CD8 on OX40R-IgG1; P5-1 (amino acids 107-116). How it is done:
as §1

As to “Human OX40L-murine CD8 (from UniProt P01731 28-196) (ligand)”, the EC50 in test [1] came to 7.9 nM; in test [3], 7.7 nM. In addition, the Kd in [2] stood at 20.7 nM.

B1: Peptide P5 (amino acids 94-124 of human OX40L) (peptide)
peptide: IINCDGFYLISLKGYFSQEVNISLHYQKDEE
notes: Synthetic peptide (Epytop), purity 85-97%
With B1, the Kd in [4] was ~10000 nM; in test [5], ~7.9 nM; in test [6] it was 7.96 nM.

B2: Recombinant human soluble OX40L (ligand)
chain: QVSHRYPRIQSIKVQFTEYKKEKGFILTSQKEDEIMKVQNNSVIINCDGFYLISLKGYFSQEVNISLHYQKDEEPLFQLKKVRSVNSLMVASLTYKDKVYLNVTTDNTSLDDFHVNGGELILIHQNPGEFCVL
notes: also called untagged recombinant human soluble OX40L; not shown: Glutathione-S-Transferase (GST) fusion partner
In turn, B2 returned a Ki in [7] of 2 nM. In addition, the IC50 in test [8] amounted to 5.9 nM.

GYFSQEVNIS (Synthetic peptide (Epytop)) [Peptide P5-1 (amino acids 107-116 of human OX40L)]: the Kd in test [5] is ~24.6 nM; in test [9] it was ~62000 nM; in [6] it was 24.6 nM.

For the origin of these results see US20070009964A1 (MERCK SERONO, published 2007).
